Assay type in all cases: biochemical
Data set [1] is described as follows: Thermal stability test of purified mutant proteins at 55° C. and 60° C. Here is the method: (§1) Enzymatic activity was tested according to the above standard enzymatic activity detection steps (enzymatic activity was tested after reacting at pH7.0, 50° C. for 10 minutes). The enzyme solution which was not subjected to heat treatment was used as a control. Its specific activity tested under pH 7.0, 50° C. was used as a reference value and its relative activity was defined as 100%. The relative activity of the treatment group was a ratio between the relative activity value obtained after storing at different temperatures for different times (treatment conditions) and the reference value. […] After storing at these temperatures for 45 min, the enzymatic activity decreased to be less than 50% of the maximum activity.
Transformants were picked up by sterile toothpick to a LB liquid culture containing antibiotic and IPTG (in a final concentration of 1 mM) contained within the wells of a 96-well plate and cultured overnight at 37° C. and 200 rpm. Thallus was collected by centrifugation. 100 ul buffers having the optimum reaction pH were added to re-suspend the thallus. […] Enzymatic activity was detected according to the DNS method. […] Then the enzymatic activity was detected. The residual enzymatic activity of the treatment group was calculated as a percentage of the enzymatic activity of the treatment group in relative to that of the control group. […]

Data set [2] can be described thus: Detection on temperature tolerance. The procedure:
(§2) In a 100 μl reaction system, birch xylan was added to a final concentration of 1% (w/w), and Na2HPO4/NaH2PO4 buffer (pH7.0) was added to a final concentration of 100 mM. A suitable amount of enzyme solution diluted by the abovementioned buffer was added to the reaction system for reaction at 50[…] for 10 minutes. 100 μl DNS were added to stop the reaction. For the control, 100 μl DNS were firstly added to the above reaction system before adding the enzyme solution. The reaction mixtures were subjected to a boiled water bath for 5 minutes to develop color. Absorbance value at 540 nm was detected by a microplate reader. After subtracting the absorbance value of the control from that of the sample, the enzymatic activity unit (U) was calculated based on the standard curve.
as §1, with “The Xyl7 enzyme solution was stored in a buffer having an optimum pH 7.0 at different temperatures (55° C., 50° C., 45° C.) or at 50° C. with addition of 70 mM mercaptoethan for different times (15 min, 30 min, 45 min, 60 min, 75 min). Enzymatic” for “Enzymatic”

Data set [3] in a line: Detection on pH tolerance. The settings on record: pH 6.5, 7.0 or 7.5, 50° C., 45 min; % of the highest activity. Here is the method: as §2
The enzyme solution was kept in buffers of different pH values (6.5, 7.0 and 7.5) or at pH 7.0 with addition of 70 mM mercaptoethanol at 50° C. for different times (15 min, 30 min, 45 min, 60 min, 75 min). Enzymatic activity was tested according to the above standard enzymatic activity detection steps (enzymatic activity was tested after reacting at pH7.0, 50° C. for 10 minutes). The specific activity value of Xyl7 obtained after storing at pH7.0, 50° C. for 0 minute and reacting at 50° C. for 10 minutes was used as a reference value, and its relative activity was defined as 100%. […]

The nature of data set [4]: TLC analysis on hydrolyzed products of birch xylan by Xyl7. Here is the method: 1% (w/w) Birch xylan was treated by 15 U Xyl7 at pH7.0 and 50[…] for 10 min, 1 h, 4 h, and 12 h, respectively, to obtain the hydrolyzed products. […], each 5 μl, were subjected to TLC for identification. The standard samples were xylose, xylobiose, and xylotriose. The developing agent comprised ethyl acetate, acetic acid and water in a ratio of 2:1:1(V/V/V). The chromogenic agent was a solution of 1 mL aniline, 1 g diphenylamine and 5 mL 85% phosphoric acid dissolved in 50 mL acetone.

Setting [5] is: pH 7.0, % of the maximum activity.

B1: Xyl7: endo-1,4-β-xylanase of 505 amino acids, SEQ ID NO:2, from termite gut metagenome, expressed in E. coli with His tag (protein)
chain: MKKLIALSFIAAFFAPLFAQGPTWTTSTIQAYNGYDYELWNQNNAGTVSMKLTGDNGSGASAVGGTFTATWSNTQNVLFRSGKKWGSSSNQNHTQIGNMSINFAATWSSTDNVKMLGVYGWAYFTSANVPTKQENGTNASFSNQIEYYIIQDRGSYNPASGGTNAKKYGSATIDGIAYDFYVCDRINQPMLTGNGNFKQFFSVPQSASAHRTSGTISVSQHFNKWHELGMKMDGPLYEVAMKVESYTGSGSSNGSATVTKNLLTIGGTTPTPSSNSGGTTSSSSRASSSSRASSSSNAAVQATTCKTPLITYPTSTVPSDPYTACFKYTDDKCYVCKVENEGEFEGNMNTCGSGWVWDGTQIDNNLRDGYWYQEVPCPAGSSSSRSSSSSVAVSSSSRSSSSSVAASSSSRSSSSSASVSSSSEETPIRVLHTIPSKFRVRSLNNGALQIESNADVVLYLYDTKGKMAQKIEAPTGSSIVKLSVPAGIYIVRNVQTKEKLRVMVR
modifications: His tag; Intestinal tract metagenome of termite
Regarding B1, the “half life at 60° C.” value in data set [1] was “less than 10 minutes”. The “effect of 70 mM mercaptoethan on loss of activity during storage” value in data set [2] (pH 7.0, 50° C., 70 mM mercaptoethan added) is “decrease rate of the enzymatic activity was further reduced”. Moreover, in data set [2] (setting [5]), the “activity after storing at 50° C. and 45° C. for 45 min” value is given as “less than 50%”; the “activity after storing at 55° C. for 15 min” value is “less than 50%”. Besides, the “retained activity after storing in buffer” value in data set [3] is recorded as no less than 50%. For the same molecule, in data set [4] (10 minutes, pH7.0, 50), the “hydrolyzed product of xylan, action time relatively short” value is recorded as “oligoxylan”. Further, in data set [4] (12 hours, pH7.0, 50), the “hydrolyzed product of xylan, action time relatively long” value was “xylo-oligosaccharide, mainly including xylobiose, xylotriose and xylotetraose”. In addition, in data set [4] (excess enzyme), the “final hydrolyzed product if the enzyme was excessive” value was “xylose”.

Values taken from patent US20160201045A1, “Endo-xylanase and Coding Gene and Use Thereof” (SHANGHAI INSTITUTES FOR BIOLOGICAL SCIENCES CHINESE ACADEMY …, priority 2013, published 2016).
